Laboratory results: PMC10889886

Legend:
[1] = molecular target: HCoV-229E Spike antigen (HCoV-229E) (UniProt P15423); test: […], PBS running buffer; […]
[2] = molecular target: soluble SARS-CoV-2 Spike (S) (SARS-CoV-2); test: […], PBS running buffer; […]

Question: Which stoichiometry N [1] does the source give for “HCoV-229E Spike antigen (from UniProt P15423 16-1173) (natural protein)” here?
Answer: 3

Question: For “soluble SARS-CoV-2 Spike (S) (domain or fragment)”, which stoichiometry N [2] is on record?
Answer: 3
